Assay results taken from paper PMC4317691, “Stability of glucagon-like peptide 1 and glucagon in human plasma” (Endocrine Connections, 2015).

Key:
[1] = human plasma, no ice
Procedure: GLP-1 and glucagon (0 and 40 pmol/l) were added to the portions, whereafter they were stored at either room temperature or on ice for 1 h and measured (as described below plasma samples after extraction and buffer samples directly).

[2] = Procedure: The aliquots (N=6–8) of spiked plasma were then: i) immediately extracted with ethanol (final concentration 70%, for this treatment we used N=21); ii) subjected to one freeze–thaw cycle (placed at −20 °C for ∼1 h followed by thawing in an ice bath) and extracted (using 70% ethanol, final concentration) immediately upon thawing; iii) subjected to two freeze–thaw cycles and extracted immediately upon second thawing; iv) subjected to three freeze–thaw cycles and extracted immediately upon third thawing; v) kept on ice for 1 h and extracted immediately after; vi) kept on ice for 3 h and extracted immediately after; vii) kept without ice for 1 h at RT and extracted immediately after; viii) kept without ice for 3 h and extracted immediately after.
Later, an additional plasma pool was prepared of fresh plasma from some (n=5) of the healthy subjects contributing to the first pool, spiked with glucagon (0 and 40 pmol/l, final concentration), and aliquoted. Thereafter, the valiquots were kept on ice for up to 24 h. These aliquots (N=6–8 for each time point) were extracted after 1, 3, 6, 12, and 24 h, respectively, measured (see below) and compared with a set of aliquots extracted immediately after spiking with peptide. […] After extraction, peptide concentrations were analyzed using the assays described below. […]

[3] = remark: listed apart in the source
Procedure: From each of the original spiked plasma portions, eight to ten aliquots were distributed into low-adsorption Nunc tubes (VWR-Bie&Berntsen A/S, Herlev, Denmark). One set of samples (N=8–10) was extracted and analyzed immediately to serve as controls. The remaining eight sets were divided into two and stored at −20 °C or −80 °C. Samples (N=8–10) from each set were analyzed after 1, 3, 6, and 12 months of storage. In addition, seven portions of the new plasma pool as well as assay buffer (to which was added 6% human serum albumin (HSA) to mimick plasma), spiked with 0 and 40 pmol/l of glucagon (N=5 for each set of spiked samples), were assayed (plasma after extraction) after freezing (at −20 °C) for 0 (i.e., they were measured immediately without freezing), 1, 3, 6, 12, 24, and 72 h of storage at −20 °C.
The recovery in percent was calculated as the measured concentration in the individual, spiked plasma sample minus the concentration in the corresponding non-spiked plasma sample divided by the theoretical spiked concentration of peptide and multiplied by 100. For the presentation of data, we normalized the recovery after each treatment by adjusting for the recovery of the samples extracted immediately, set as 100% (Table 1). Differences between treatments were analyzed by one-way ANOVA for repeated measurement with post hoc Bonferroni correction. […]

[4] = Stability of glucagon in frozen assay buffer with 6% HSA; type: physicochemical; details: 40 pmol/l, -20 °C for up to 72 h

Molecule | Recovery of intact GLP-1 on addition of a DPP4 inhibitor [1] | Glucagon recovery at RT for 3 h, N-terminal-specific assay [2] | Glucagon stability at RT for 1 h [2] | Loss of glucagon recovery after 1 month of frozen storage [3] | Recovery of glucagon in buffer after freezing [4]
CC[C@H](C)[C@H](NC(=O)[C@H](Cc1ccccc1)NC(=O)[C@H](CCC(=O)O)NC(=O)[C@H](CCCCN)NC(=O)[C@H](C)NC(=O)[C@H](C)NC(=O)[C@H](CCC(N)=O)NC(=O)CNC(=O)[C@H](CCC(=O)O)NC(=O)[C@H](CC(C)C)NC(=O)[C@H](Cc1ccc(O)cc1)NC(=O)[C@H](CO)NC(=O)[C@H](CO)NC(=O)[C@@H](NC(=O)[C@H](CC(=O)O)NC(=O)[C@H](CO)NC(=O)[C@@H](NC(=O)[C@H](Cc1ccccc1)NC(=O)[C@@H](NC(=O)CNC(=O)[C@H](CCC(=O)O)NC(=O)[C@H](C)NC(=O)[C@@H](N)Cc1c[nH]cn1)[C@@H](C)O)[C@@H](C)O)C(C)C)C(=O)N[C@@H](C)C(=O)N[C@@H](Cc1c[nH]c2ccccc12)C(=O)N[C@@H](CC(C)C)C(=O)N[C@H](C(=O)N[C@@H](CCCCN)C(=O)NCC(=O)N[C@@H](CCCNC(=N)N)C(N)=O)C(C)C [GLP-1 7–36NH2] | increased |  |  |  | 
glucagon 1–29 |  | significant (P=0.02) reduction | relatively stable | about 50% | unaffected
